Data on 41 sequences can be found in the nanobody polyreactivity screen of Harvey et al. (2022).

This data set can be described thus: yeast display, Sf9 membrane polyspecificity reagent, FACS + sequencing; frameworks hold sequencing errors. Summed up: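 Galactose-induced (36–48 hours) yeast carrying a synthetic nanobody display library were exposed to 10% biotinylated, detergent-solubilized Sf9 membrane reagent at 4 °C for 1 hour. FACS followed streptavidin microbead enrichment, using low and high (top ~1%) gates for expression (anti-HA) and reagent binding (streptavidin). Colony PCR, MiSeq 2 × 250 sequencing and CDR-length filtering followed. Labels for polyreactivity reflect the gate of origin.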
Turning to “QVQLVESGGGLVQAGGSLRLSCAASGRISRCYVMGRYRHAPGTERELVAAITWNSGSTYYADSVKGRFTISRDNAKNTVYLQMNSLTPEDTAVYYCAGVLYSRYQQYDYWGQGTQVTVSS”, the “polyreactivity (PSR sort gate)” value is on record as “high polyreactivity”.

Consider “QVQLVESGGGLVQAGGSLRLSCAASGRISRSKTMGWYRQATGKERELFAVINTWIGGSTYYADSVKGRFTISRDNAKNTVYLQMNRQKPEDTAVYYCAADATLWDWWLDYDYWGQVTQVTVSS”, for which the “polyreactivity (PSR sort gate)” value is given as “high polyreactivity”.

Take “QVQLVESGGGLVQAGGSLRLSCAASGRISRSNTMGWYRQGPGKERELVAAISRGGGSTYYADSVKGRFTISRDNAKNTVYLQMNSLKPEDTAVDYCAKAFRGHYWRQGTQVTVSS”: the “polyreactivity (PSR sort gate)” value is “high polyreactivity”.

Take “QVQLVESGGGLVQAGGSLRLSCAASGRISSAYAMGWYRQAPGKERELVAAISSGTRTNYADSVKGRFTMSRDNAKNTVYLQMNSLKPEDTAVYYCNAVPGYVYYYQYWGQGTQVTVSS”: the “polyreactivity (PSR sort gate)” value is given as “high polyreactivity”.

Regarding “QVQLVESGGGLVQAGGSLRLSCAASGRISSNVMGWYRQAPGKERELVAAISVSGARTYYADSVKGRFTISRDNAKNTVYLQMNSLKPEDTAVYDCAAVYGGVYYGGDYWGQGTQVTVSS”, the “polyreactivity (PSR sort gate)” value is “high polyreactivity”.

As for “QVQLVESGGGLVQAGGSLRLSCAASGRISSYYVMGWYRQAPGKERELVAAITGGDSTNYADSVKGRFTISRDNAKNTVYLQMNSLKPEDTAVYYCNAYYWYLDDYWGQGSQVTVSS”, the “polyreactivity (PSR sort gate)” value is given as “high polyreactivity”.

Turning to “QVQLVESGGGLVQAGGSLRLSCAASGRISTYYTMGWYRQAPGKERELVAAISWSGTSTYYADSVKGRFTISRDNAKNTVYLQMNSLKPEDTAVYYCNARWRYPLDSVTDDYWGQGTQVTVSS”, the “polyreactivity (PSR sort gate)” value is listed as “high polyreactivity”.

For the sequence “QVQLVESGGGLVQAGGSLRLSCAASGRISVRIYAMGWYRQAPGKERELVAIISRSGGSTYYADSVKGRFTISRDNAKTTVYLQMNSLKPQDTAVYYCNARWSFSYTVWVASYWCLDDYWGQGTQVTVSS”, the “polyreactivity (PSR sort gate)” value is “high polyreactivity”.

“QVQLVESGGGLVQAGGSLRLSCAASGRISVVNAMGWYRQAPGQERELVAAIRRASTNYADSVKGRFTISRDNAKKTVYLQMNSLKPEDTAVYYCAARVYGINIFEYWGQATQVTVSS”: the “polyreactivity (PSR sort gate)” value is given as “high polyreactivity”.

For the sequence “QVQLVESGGGLVQAGGSLRLSCAASGRISVYNAMGWYRQAPGKERELVAAISRGSTNYADSVKGRFTISRDNAKNTVYLQMNSLKPEDTAVYYCAARSVSFPWRRYAGYDYWGQGTQVTVSS”, the “polyreactivity (PSR sort gate)” value was “high polyreactivity”.

For “QVQLVESGGGLVQAGGSLRLSCAASGRISYTYSAMGWYRQAPGKERELVAAITRRGGSTSYADSVKGRFTISRDNAKNTVYLQMNSLKPDDTAVYYCAAVGSFHIVDYWGQGTQVTVSS”, the “polyreactivity (PSR sort gate)” value was “high polyreactivity”.

As to “QVQLVESGGGLVQAGGSLRLSCAASGRIVADYAMGWYRQAPGKERELVAAIRGSGGDTYYADSVKGRFTISRDNAKNTDYLQMNSLKPEDTAVYYCNAVDTYDLDNDYWGQGTQVTVSS”, the “polyreactivity (PSR sort gate)” value is “low polyreactivity”.

As for “QVQLVESGGGLVQAGGSLRLSCAASGRIVANAMGWYRQAPGKESELVAAITATYYADSVKGRFTISRDNAKNTVYLQMNSLKPEDTAVYYFNAYLSPKQPLSPPDPSFEGGYWGQGTQVTVSS”, the “polyreactivity (PSR sort gate)” value was “low polyreactivity”.

For “QVQLVESGGGLVQAGGSLRLSCAASGRIVARYAMGWYRQAPGKERELVAAISPVGSTYYADSVKGRFTISRDNAKNTVYLQMTSLNPEDTGVYYCNAYNTRRSAPYVWRTYDYWGQGTQVTVSS”, the “polyreactivity (PSR sort gate)” value is on record as “high polyreactivity”.

As for “QVQLVESGGGLVQAGGSLRLSCAASGRIVGRNAMGWYRQAPGKERELVAAISSGGGRTYYADSVKGRFTISRDNAKNTVYLQMNSLKPEDTAVYYCNAGWRGRFYYWGQGTQVTVSS”, the “polyreactivity (PSR sort gate)” value is given as “high polyreactivity”.

As for “QVQLVESGGGLVQAGGSLRLSCAASGRIVGRYAMGWYRQAPGKERELVAAISWSGGSTYYADSVKGRFTISRDNAKNTVYLQKNSLKPEDTAGYYCAADYDSYFRLYNYWGQGTQVTVSS”, the “polyreactivity (PSR sort gate)” value was “high polyreactivity”.

On to “QVQLVESGGGLVQAGGSLRLSCAASGRIVPGNVMGWYRQAPGKERELVAAISSSGGSTYYADSVKGRFTISRDNAKNTVYLQMNSLKPEDTAVYYCNVRSGGKRRYSGRVDYWGQGTQVTVSS”, for which the “polyreactivity (PSR sort gate)” value is “low polyreactivity”.

As to “QVQLVESGGGLVQAGGSLRLSCAASGRIVRNAIGWYRQAPGKERELVAAISRSGGSTYYADSVKGRFTISRDNAKNTVYLQMNSLKPEDTAVYYCDKRSTSQSLQGEYWGQGTQVTVSS”, the “polyreactivity (PSR sort gate)” value was “high polyreactivity”.

Consider “QVQLVESGGGLVQAGGSLRLSCAASGRIVSVNAMGWYRQAPGKERVLVAAITSGGRTNYADSVKGRFTISRDNAKNTVYLQMNSLNPEDTAVYFCAAPYLKGGEDEYWGQGTQVTVSS”, for which the “polyreactivity (PSR sort gate)” value was “high polyreactivity”.

Consider “QVQLVESGGGLVQAGGSLRLSCAASGRIWVYAMGWYRQAPGKERELVATITYNSGRTYYADSVKGRFTISRDNAKNTVYLQMNSLKPEDTAVYYCNADFWYSYRRGYGYWGQGTQVTVSS”, for which the “polyreactivity (PSR sort gate)” value is “high polyreactivity”.

As for “QVQLVESGGGLVQAGGSLRLSCAASGRIYDGYAMGWYRQAPGKERELVATISSGGSTYYADSVKGRFTISRDNAKNNVYLQMNSLKPEDTAVYYCAADSWVQFDYWGQGTQVTVSS”, the “polyreactivity (PSR sort gate)” value is reported as “low polyreactivity”.

Consider “QVQLVESGGGLVQAGGSLRLSCAASGRIYDVYAMGWYRQAPRKERELVATITGSGGGTYYADSVKGRFTISRDNAKNTVYLQMNSLKPEDTAVYYCAADYYPTYAYYVSNVGYDYWGQGTQVNVSS”, for which the “polyreactivity (PSR sort gate)” value is given as “low polyreactivity”.

On to “QVQLVESGGGLVQAGGSLRLSCAASGRIYEYMGWYRQAPGKERELVAAISWRGGRTYYADSVKGRFTISRDNAKNTVYLQMNSLKPEDTAVYYCAAKTTYRYGYWGQGTQVTVSS”, for which the “polyreactivity (PSR sort gate)” value is “high polyreactivity”.

“QVQLVESGGGLVQAGGSLRLSCAASGRIYFYNALGWYRQAPGKERELVATITRSGGRTYYADSVKGRFTISRDNAKNTVYLQMNSLKPEDTAVYYCAAYPTNNLYPNLEYWGQGTQVTVSS”: the “polyreactivity (PSR sort gate)” value is reported as “high polyreactivity”.

For the sequence “QVQLVESGGGLVQAGGSLRLSCAASGRIYIIYAMGWYRQAPRKEREMVAAITRSGGRTFYADSVKGRFTISRDNAKNTVYLQMNSLKPEDTAVYYCAAAFGRVTKYGYRNQYGYWGQGTQVTVSS”, the “polyreactivity (PSR sort gate)” value is “high polyreactivity”.

As for “QVQLVESGGGLVQAGGSLRLSCAASGRIYLGNVMGWYRQAPGKERELVAAISWSAGSTYYSDSVKGRFTISRDNAKITVYLQMNSLKPEDTAVYYCAAVYLWWSYEFDYWGQGTQVTVSS”, the “polyreactivity (PSR sort gate)” value is reported as “low polyreactivity”.

Consider “QVQLVESGGGLVQAGGSLRLSCAASGRIYLYAMGWYRQTPGKERELVAAISYSGGSTYYADSVKGRFTISRDYAKNTVYLQMNCLKPEDTAVYYWASEAGSYWGKGTQVTVSS”, for which the “polyreactivity (PSR sort gate)” value is given as “high polyreactivity”.

With “QVQLVESGGGLVQAGGSLRLSCAASGRIYSNYAIGWYRQAPGKERELVAAITSGGRTNYADSVKGRFTISRDNAKNTVYLQMNSLKRDDTAVYYCDAETTPYQPDGFDEYYYWGQGTQVTVSS”, the “polyreactivity (PSR sort gate)” value is “high polyreactivity”.

As to “QVQLVESGGGLVQAGGSLRLSCAASGRIYTRNTMGWYRQAPGKERELVAAITSRGGSTYYADSVKGRFTISRDNAKNTVYLQMNSLKPEDTAVYYCAADKPRSYYYWGLGTQVTVSS”, the “polyreactivity (PSR sort gate)” value is “high polyreactivity”.

Consider “QVQLVESGGGLVQAGGSLRLSCAASGRIYVYYVLGWYRQAPGKERELVAAITYSGGSTYYADSVKGRFTISRDNAKNTVYLQMNSLKPEDTAVYYCNKVDAFGIVRLYYWGQGTQVTVSS”, for which the “polyreactivity (PSR sort gate)” value was “low polyreactivity”.

On to “QVQLVESGGGLVQAGGSLRLSCAASGRIYYRYGMGWYRQAPGKERELVAAISRTGGSTYYADSVKGRFTISRDNAKNTVYLQMNSLIPEDTAVYYCNATSNYRYDYWGQGTQVTVSS”, for which the “polyreactivity (PSR sort gate)” value is given as “low polyreactivity”.

Take “QVQLVESGGGLVQAGGSLRLSCAASGRMFGAYGMGWYRQAPGKERELVAAISNGGRTSYADSVKGRFTISRDNAKNTVYLQMNSLKPEDTAVYYCAAVQLAYTYYWYNDWGQGTQVTVSS”: the “polyreactivity (PSR sort gate)” value is on record as “high polyreactivity”.

As for “QVQLVESGGGLVQAGGSLRLSCAASGRNFAWYAMGWYRQAPGKERELVAAISWSSDTTYYADSVKGRFTISRDNAKNTVYLQMNSLKPEDTAVYYCAAVFQGYTRKYYYWGQGTQVTVSS”, the “polyreactivity (PSR sort gate)” value was “high polyreactivity”.

In the case of “QVQLVESGGGLVQAGGSLRLSCAASGRNFDKYTMGWYRQAPGKERELVAAISKSGSGTFYADSVKGRFTISRDNAKNTVYLQMNRLKPEDTAVYYCARVYTVGTGRSWRLDYWGQGTQVTVSS”, the “polyreactivity (PSR sort gate)” value is reported as “high polyreactivity”.

With “QVQLVESGGGLVQAGGSLRLSCAASGRNFGAYTMGWYRQAPGKESELVAAISSSGGRTYYADSVKGRYTISRDNAKNTVYLQMNSLKPEDTAVYYCAASYSGRKDRYPHYDYWGQGTQVTVSS”, the “polyreactivity (PSR sort gate)” value was “low polyreactivity”.

Consider “QVQLVESGGGLVQAGGSLRLSCAASGRNFGDYAMGWYRQAPGKERELVAAISSSGGRTYYADSVKGRFTISRDNAKNTVYLQMNSLQPEDTAVYYCAAQSKYYQYYSWGQGTQVTVSS”, for which the “polyreactivity (PSR sort gate)” value is reported as “high polyreactivity”.

For “QVQLVESGGGLVQAGGSLRLSCAASGRNFGLYAMGWYRQAPGTERELVAAISWGGGRTYYADSVKGRFTISRDNAKNTVYLQMNSLKPEDTAVYYCNAVYSPRYYVGGYDYWGQGTQVTVSS”, the “polyreactivity (PSR sort gate)” value was “high polyreactivity”.

As to “QVQLVESGGGLVQAGGSLRLSCAASGRNFGRYAMGWYRQAPGKEMELVAAISGSGGTTYYADSVKGRFTISRDNAKNTVYLQMNSLKPEDTAVYYCAARYWVGKVWKYDYWGQGTQVTVSS”, the “polyreactivity (PSR sort gate)” value is on record as “high polyreactivity”.

Take “QVQLVESGGGLVQAGGSLRLSCAASGRNFGSYAMGWYRQAPGKERELVAGIRSVGSTNYADSVKGRFTISRDNAKNTVYLQMNSLKPEDTAVYYCAARLWHLSYAGQGGDYWGQGTQVTVSS”: the “polyreactivity (PSR sort gate)” value is “low polyreactivity”.

As to “QVQLVESGGGLVQAGGSLRLSCAASGRNFGTNAMGWYRQAPGKERELVASIDLSADSTYYADSVKGRFTISRDNAKNTVYLQMNSLKPEDTAVYYCNKDGYPWPPNLDYWGQGTQVTVSS”, the “polyreactivity (PSR sort gate)” value is given as “low polyreactivity”.

For “QVQLVESGGGLVQAGGSLRLSCAASGRNFKYNAMGWYRQAPGKERELVAVITSGGSTYYADSVKGRFTISRDNAKNTVYLQMNSLKPEDTAVYYCAKKYYKVHKFDYWGQGTQVTVSS”, the “polyreactivity (PSR sort gate)” value is on record as “low polyreactivity”.
